These results are taken from patent US20040091878.

Holding throughout (assay): EMSA
(In general: Mobility shift assays separate free from complexed probe on a gel.)

For data set [1], the system named is Clone 6 ZFP (6-finger) (artificial). The note with it: probe flanks not given; 0.1 mM ZnCl2.
Data set [2] deals with Clone 7 ZFP (6-finger) (artificial). The note with it: probe flanks not given; Table 5 prints TAGGTGGCATTGGGTGCTC, listing SEQ 67 tacgtggcattgggtgctc.
Data set [3] has as its system Clone 5 ZFP (BCTV whole L1, 6-finger) (artificial). Conditions: probe 0.03 fmol per 10 ul; vast majority bound at 3 pM; 0.1 mM ZnCl2.

Bounds are passed on as bounds.

As usually defined, the Kd is the constant that tells how readily two partners part at equilibrium. The low end stands for a tighter complex, the high end for a looser complex. As to “AGTAAGGTAGGAGATGATA (double strand) [Clone 6 target]”, the Kd in data set [1] is below 3 pM.
As for “TACGTGGCATTGGGTGCTC (double strand) [Clone 7 target]”, the equilibrium dissociation constant (Kd) in data set [2] is below 3 pM.
Sequence “TATATATATTGGGTGCTTTGGGTGCTCTATATATA (double strand) [BCTV whole L1 probe]” gave a Kd in data set [3] below 3 pM.
